We go through 6 molecules from patent US20260103526A1 (OSE IMMUNOTHERAPEUTICS, published 2026).

One assay has as its target T1, mice CLEC-1A protein (mouse, UniProt Q8BWY2 73-269, limits assumed).
T1 construct: also called mice orthologue of CLEC-1A
T1 sequence (looked up): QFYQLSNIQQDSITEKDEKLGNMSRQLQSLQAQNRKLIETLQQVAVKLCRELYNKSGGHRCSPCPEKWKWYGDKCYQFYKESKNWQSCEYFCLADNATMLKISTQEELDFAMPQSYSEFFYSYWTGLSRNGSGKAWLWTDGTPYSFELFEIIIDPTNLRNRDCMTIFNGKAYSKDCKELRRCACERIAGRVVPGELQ
Put plainly: in vitro; assay not given.

In assay [1] the target is T2, Fc-CLEC-1A (recombinant human Fc-CLEC-1 protein, OSE IMMUNOTHERAPEUTICS) (human, Alexa Fluor 488 label in the flow cytometry competition assays).
T2 construct: also called hFc-CLEC; Fc-CLEC1-A488
T2 chain: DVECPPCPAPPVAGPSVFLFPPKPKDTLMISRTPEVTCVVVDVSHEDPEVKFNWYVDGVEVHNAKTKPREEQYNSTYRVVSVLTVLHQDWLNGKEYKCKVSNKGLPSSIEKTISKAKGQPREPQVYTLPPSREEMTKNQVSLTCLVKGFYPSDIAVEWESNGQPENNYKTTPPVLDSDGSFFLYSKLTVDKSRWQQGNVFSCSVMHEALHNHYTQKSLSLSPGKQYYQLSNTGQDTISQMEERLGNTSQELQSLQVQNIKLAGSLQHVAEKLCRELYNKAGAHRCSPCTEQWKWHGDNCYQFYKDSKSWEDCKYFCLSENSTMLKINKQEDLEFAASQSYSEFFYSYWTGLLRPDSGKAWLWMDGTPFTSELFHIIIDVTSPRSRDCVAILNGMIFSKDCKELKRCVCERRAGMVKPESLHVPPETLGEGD
Put plainly: flow cytometry competition; inhibition of Fc-CLEC-1-A488 binding to Hepa 1.6 cells; reference chimeric 14H9. The source says: (§1) Murine hepatoma Hepa 1.6 or colorectal carcinoma MC38 cell lines were also used in an antagonist assay. […] Finally, cells were fixed with 1% PFA solution and read on a cytometer.
Background: Flow cytometry measures light scatter and fluorescence of single cells or particles in a stream.

In assay [2] the target is T3, recombinant hCLEC1-His (R&D SYSTEMS reference 1704-CL) (human, UniProt Q8NC01 74-280, limits assumed).
T3 construct: Bought protein; also called CLEC-His; Clec-His; not shown: His tag
T3 sequence: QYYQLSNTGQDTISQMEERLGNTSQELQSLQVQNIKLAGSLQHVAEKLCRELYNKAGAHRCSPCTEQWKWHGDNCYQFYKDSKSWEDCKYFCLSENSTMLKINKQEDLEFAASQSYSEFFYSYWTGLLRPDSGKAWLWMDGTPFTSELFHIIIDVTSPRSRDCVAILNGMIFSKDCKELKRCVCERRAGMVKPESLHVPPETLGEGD
The assay can be described thus: BLITZ: CLEC-His immobilised on a NINTA biosensor (10 µg/ml), antibody at 20 µg/ml, 120 s association and 120 s dissociation.

Assay [3] addresses T2, Fc-CLEC-1A (recombinant human Fc-CLEC-1 …). The assay can be described thus: flow cytometry competition: antibody pre-incubated with A488-labelled Fc-CLEC1 (10 nM), then binding to permeabilised Raji cells (CLEC-1 ligand m15); % stained cells.
Assay [4] shares this target. The assay can be described thus: flow cytometry competition: antibody pre-incubated with A488-labelled Fc-CLEC1 (100 nM), then binding to permeabilised NALM6 cells (CLEC-1 ligand m15); % stained cells. Here is the method:
Revelation was performed on CYTOFLEX cytometer, values corresponding to percentage of stained cells (%).
To measure competition on NALM6 cells.

Assay [5] shares this target. The assay can be described thus: flow cytometry competition: antibody pre-incubated with A488-labelled human Fc-CLEC-1 (10 µg/mL), then binding to live Hepa1.6 cells (ligand m16); % hFc-CLEC-1+ cells normalised on hIgG4.
Source text: as §1

Assay [6] shares this target. The assay can be described thus: flow cytometry competition; inhibition of Fc-CLEC-1-A488 binding to Hepa 1.6 or MC38 cells; reference chimeric 11H11.
Source text: as §1

Assay [7] has the same target. Put plainly: flow cytometry competition: antibody pre-incubated with A488-labelled human Fc-CLEC-1 (10 µg/mL), then binding to live MC38 cells (ligand m16); % hFc-CLEC-1+ cells normalised on hIgG4.
Source text: as §1

Assay [8] has the same target. Put plainly: flow cytometry competition; inhibition of Fc-CLEC-1-A488 binding to Hepa 1.6 or MC38 cells; reference chimeric 6C5.
Source text: as §1

B1: humanized 14H9 (antibody, V domains shown)
VH: QVQLVESGGGVVQPGRSLRLSCAISGFTLTTYGIHWVRQAPGKGLEWVAVIWSDASTIYASSLKSRFTISKDNTKNTVYLQMTSLRAEDTAVYYCARHGGYYNYFDYWGQGTLVTVSS
VL: DIQMTQSPSSLSASVGDRVTITCHASQNINVWLSWYQQKPGKAPKLLLYKASNLHTGVPSRFSGSGSGTDFTLTISSLQPEDIATYYCQQGQSYWTFGGGTKVEIK
notes: Only variable domains are tied to the antibody
As usually defined, the Kd is the constant that tells how readily two partners part at equilibrium. Usually koff stands for the first-order rate constant of dissociation. By kon is commonly meant the rate constant with which the complex forms. One may read the EC50 as the midpoint of the concentration-response curve. For B1, the binding result in the assay with mice CLEC-1A protein is given as “no binding”. Also, the “EC50 ratio, humanized against chimeric counterpart” value (from here on “EC50 ratio, humanized”) in assay [1] is ≤ 0.5 fold (EC50 humanized / EC50 chimeric). In [2], the dissociation constant Kd came to 5.4 nM, the koff stood at 0.000419 s⁻¹ and the on-rate constant (kon) was 77700 M⁻¹ s⁻¹. Also, the “IC50 (read off the curve)” value in assay [3] is roughly 0.2 µg/mL. For the same molecule, the “IC50 (read off the curve)” value in [4] was roughly 3 µg/mL. For the same molecule, the 50% effective concentration (EC50) in [5] was 0.539 µg/mL.

B2: humanized 11H11 (antibody, human IgG4, V domains shown)
VH: QIQLVQSGSELKKPGASVKVSCKASGYTFTNFGMNWVRQAPGQGLEWMGWINTNTGEPTYADDFKGRFVFSLDTSVSTAYLQISSLKAEDTATYFCARGAPAWFTYWGQGTTVTVSS
VL: DIQMTQSPSSLSASVGDRVTITCRASESIYSYLAWYQQKPGKAPKFLIYNAKTLASGVPSRFSGSGSGTDFTLTISSLQPEDFATYYCQHHFGTPLTFGQGTKLEIK
notes: Only variable domains are tied to the antibody; also called hum 11H11
As for B2, the binding result in the assay with mice CLEC-1A protein is “no binding”. Further, the “EC50 ratio, humanized” value in assay [6] was ≤ 0.5 fold (EC50 humanized / EC50 chimeric). In assay [2], the Kd turned out to be 0.301 nM, the koff is 7.19e-05 s⁻¹ and the kon was 239000 M⁻¹ s⁻¹. Further, the “IC50 (read off the curve)” value in assay [4] is roughly 3 µg/mL. The half-maximal effective concentration (EC50) in [7] was determined as 1.33 µg/mL. For the same molecule, the concentration giving a half-maximal response (EC50) in [5] turned out to be 0.542 µg/mL.

B3: chimeric 11H11 (antibody, V domains shown)
VH: QIHLVQSGPELKKPGETVKISCKASGYTFTNFGMNWVKQAPGKGLKWMGWINTNTGEPTYADDFKGRFAFSLETSASTAYLQINNLKNEDTATYFCARGAPAWFTYWGQGTLVTVSA
VL: DIQMTQSPASLSASVGETVTITCRATENIYSYLAWYQQKQGKSPQFLVYNAKTLAEGMPSRFSGSGSGTQFSLKINILQPEDFGTYYCQHHFGTPLTFGAGTKLELKR
For B3, the figures for the half-maximal effective concentration (EC50) in assay [7] and in assay [5] were 2.33 µg/mL and 2.58 µg/mL, respectively.

B4: humanized 6C5 (antibody, V domains shown)
VH: QVQLVQSGAEVKKPGSSVKMSCKASGYTFTDYVISWVRQAPGQGLEWMGEIYPGSGNTYYNQKFQGRVTLTADKSTSTAYMELSSLRSEDTAVYYCAGGGSSHFDYWGQGTTVTVSS
VL: EIVLTQSPATLSLSPGERATLSCRASQSVDNHGFSFMNWFQQKPGQAPRLLIYAASNRGTGIPARFSGSGSGTDFTLTISSMEPEDFAVYYCQQSKEVPWTFGGGTKVEIK
notes: as for B1
As to B4, the binding result with mice CLEC-1A protein is on record as “no binding”. Further, in [8], the “EC50 ratio, humanized” value is ≤ 0.5 fold (EC50 humanized / EC50 chimeric). Also, in assay [2], the dissociation constant Kd turned out to be 5.69 nM, the off-rate constant (koff) was 0.000275 s⁻¹ and the kon was determined as 48300 M⁻¹ s⁻¹. In assay [4], the “IC50 (read off the curve)” value is roughly 3 µg/mL. The EC50 in assay [7] is 0.522 µg/mL. Further, in [5], the EC50 was found to be 1.06 µg/mL.

B5: chimeric 6C5 (antibody, V domains shown)
VH: QVQLQQSGPELVKPGASVKMSCKASGYTFTDYVISWVKQKTGQGLEWIGEIYPGSGNTYYNEKFKGKATLTADKSSSTAYIHLSSLTSEDSAVYFCAGGGSSHFDYWGQGTTLTVSS
VL: not shown
B5: the EC50 was found to be 2.81 µg/mL in assay [7] and 2.44 µg/mL in assay [5].

B6: chimeric 14H9 (antibody, V domains shown)
VH: QVQLKESGPGLVAPSQSLSITCTISGFSLTTYGIHWVRQPPGKGLEWLVVIWSDGSTIYNSALKSRLSISKDNSKSQVFLKMNSLQTDDTAIYYCARHGGYYNYFDYWGQGTTLTVSS
VL: DIQMNQSPSSLSASLGDTITITCHASQNINVWLSWYQQKPGNIPKLLIYKASNLHTGVPSRFSGSGSGTTFTLTIDSLQPEDIATYYCQQGQSYWTFGGGTKLEIKR
Take B6: the concentration giving a half-maximal response (EC50) in assay [5] was found to be 2.72 µg/mL.
